# Experimental data published in patent publication US20210147552A1 (UNIVERSITETET I OSLO, published 2021).
# B1: 12mer DQ2.5-glia-α1a peptide (free) (peptide)
# peptide: QLQPFPQPELPY
# notes: also called free peptide
# B2: 12mer DQ2.5-glia-α2 peptide (free) (peptide)
# peptide: PQPELPYPQPQL
# notes: also called free peptide
# B3: R3A2-9F hIgG1 (antibody)
# heavy: not shown
# light: DIQVTQSPSFLSASVGDRVTITCRASHDISSYLAWYQHKPGKAPKLLIHAASILQSGVPSRFSGSGSGTEFTLTISSLQPEDFATYYCQDLNSYPLFGQGTRLEIKRTVAAPSVFIFPPSDEQLKSGTASVVCLLNNFYPREAKVQWKVDNALQSGNSQESVTEQDSKDSTYSLSSTLTLSKADYEKHKVYACEVTHQGLSSPVTKSFNRGEC
# notes: also called mAb R3A2-9F
# B4: R4A1-3A (107) hIgG1 (antibody, V domains shown)
# VH: QVQLQQSGPGLVKPSQTLSLTCAISGDSVSSNSAAWNWIRQSPSRGLEWLGRTYYRSKWYNDYAVSVKSRITINPDTSKNQFSLQLNSVTPEDTAVYYCARDSSSGWHPYGMDVWGQGTTVTVSS
# VL: DIQVTQSPSFLSASVGDRVTITCRASHDISSYLAWYQHKPWKAPKLLIHAASILQSGVPSRFSGSGSGTEFTLTISSLQPEDFATYYCQDLNSYPLFGQGTRLEIKR
# notes: full-length human IgG1/kappa made in HEK293E; heavy chain constant region with N297G; also called mAb R4A1-3A
# B5: 33mer α-gliadin peptide (peptide)
# peptide: LQLQPFPQPELPYPQPELPYPQPELPYPQPQPF
# B6: R2A1-8E hIgG1 (antibody, V domains shown)
# VH: B4 VH
# VL: DIQVTQSPSFLSASVGDRVTITCRASHDISSYLAWYQHKPGKAPKLLIHAASILQSGVPSRFSGSGSGTEFTLTISSLQPEDFATYYCQQLNSYPLLTFGGGTKVDIKR
# notes: full-length human IgG1/kappa made in HEK293E; heavy chain constant region with N297G; also called mAb R2A1-8E
# B7: 206 hIgG1 (antibody, V domains shown)
# VH: QVQLVQSGAEVKKPGSSVKVSCKASGGTFSSYAISWVRQAPGQGLEWMGGIIPIFGTANYAQKFQGRVTITADESTSTAYMELSSLRSEDTAVYYCARDVQRMGMDVWGQGTTVTVSS
# VL: DIQMTQSPSSVSTSVGDRVTITCRASQDISNWLAWYQQKPGKAPKLLIYDSSTLQSGVPSRFSGSGSGTDFTLTISTLQPEDFATYYCQQFNSYPLTFGGGTKVDIKR
# notes: full-length human IgG1/kappa
# B8: 228 hIgG1 (antibody, V domains shown)
# VH: QVQLVQSGAEVKKPGSSVKVSCKASGGTFSSYAISWVRQAPGQGLEWMGGIIPIFGTANYAQKFQGRVTITADESTSTAYMELSSLRSEDTAVYYCARGQVLIWTYYYGMDVWGQGTTVTVSS
# VL: DIRLTQSPSSLSASVGDRVTITCQASQDISNYLNWYQQKPGKAPKLLIYDASNLETGVPSRFSGSGSGTDFTFIISSLQPEDIATYYCQQYDNLPLTFGGGTKLEIKR
# notes: full-length human IgG1/kappa
# B9: 220 hIgG1 (antibody, V domains shown)
# VH: QVQLVESGAEVKKPGSSVKVSCKASGGTFSSYAISWVRQAPGQGLEWMGGIIPIFGTANYAQKFQGRATITADESTSTAYMELSSLRSEDTAVYYCARGRNTYCSGGSCYSPHFDYWGQGTLVTVSS
# VL: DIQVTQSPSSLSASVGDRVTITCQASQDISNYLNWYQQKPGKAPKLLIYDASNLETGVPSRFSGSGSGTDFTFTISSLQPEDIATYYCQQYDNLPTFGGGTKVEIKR
# notes: full-length human IgG1/kappa
# What was measured:
# R3A2-9F hIgG1 [1] = target: B3; assay: competition ELISA: 0.1 µg/ml hIgG1 pre-incubated with the competitor, then binding to plate-bound HLA-DQ2.5:DQ2.5-glia-α1a
# Description: (§1) FIG. 2. […] (C) Eight different HLA-DQ2.5:gluten peptide complexes and HLA-DQ2.5:CLIP2 were used in ELISA for specificity analysis (n=2). mAb 2.12.E11 was included to control pMHC capture levels.
# (§2) 96-well MaxiSorp microtiter plates (Nunc) were coated overnight at 4° C. with NeutrAvidin (Avidity, 10 ug/ml in PBS), before blocking with 4% skim milk powder in PBS (w/v). Biotinylated pMHC was captured onto the NeutrAvidin. […] 0.2 μg/ml mAb 2.12.E11 [Viken, H. D., et al., 1995] was detected using polyclonal anti-mouse IgG Fc-ALP (Sigma, 1:2000). […] Assays were performed at RT with duplicate wells, except for single clone screenings with only one well per sample.
# R2A1-8E hIgG1 [2] = target: B6; assay: as above
# Description: as §1, §2
# R4A1-3A (107) hIgG1 [3] = target: B4; assay: as above
# Description: as §1, §2
# BSA [4] = target: T1, BSA (Bos taurus, UniProt P02769); assay: ELISA, hIgG1 (printed anti-glia1a_no106), control well with BSA
# T1 construct: not specified; also called bovine serum albumin
# T1 sequence (P02769 25-607 limits assumed): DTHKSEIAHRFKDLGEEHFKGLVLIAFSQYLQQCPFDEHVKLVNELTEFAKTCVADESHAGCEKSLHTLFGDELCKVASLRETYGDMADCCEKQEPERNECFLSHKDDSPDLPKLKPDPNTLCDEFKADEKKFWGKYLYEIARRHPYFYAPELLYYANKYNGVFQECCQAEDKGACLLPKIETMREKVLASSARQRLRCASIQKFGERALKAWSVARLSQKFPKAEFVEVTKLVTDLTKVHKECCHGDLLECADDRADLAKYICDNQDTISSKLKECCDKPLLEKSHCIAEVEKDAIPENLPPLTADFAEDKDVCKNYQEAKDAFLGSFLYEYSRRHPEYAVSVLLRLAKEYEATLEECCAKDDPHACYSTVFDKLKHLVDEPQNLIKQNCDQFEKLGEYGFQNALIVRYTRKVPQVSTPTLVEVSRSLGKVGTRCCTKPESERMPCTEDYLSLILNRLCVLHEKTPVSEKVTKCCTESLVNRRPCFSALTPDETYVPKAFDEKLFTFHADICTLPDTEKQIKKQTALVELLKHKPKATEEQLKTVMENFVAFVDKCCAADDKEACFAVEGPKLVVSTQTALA
# [5] = target: B1; assay: competition ELISA, hIgG1 pre-incubated with competitor
# Description: as §1, §2
# [6] = target: B2; assay: as above
# Description: as §1, §2
# 33mer α-gliadin peptide = target: B5; assay: as above
# Description: as §1, §2
# R3A2-9F hIgG1 [7] = target: B3; assay: competition ELISA: 0.1 µg/ml hIgG1 pre-incubated with 33mer α-gliadin, then binding to plate-bound HLA-DQ2.5:DQ2.5-glia-α1a
# Description: as §1, §2
# R2A1-8E hIgG1 [8] = target: B6; assay: as above
# Description: as §1, §2
# R4A1-3A (107) hIgG1 [9] = target: B4; assay: as above
# Description: as §1, §2
# BSA [10] = target: T1, BSA; assay: ELISA, hIgG1, control well with BSA
# Description: FIG. 14. […] The peptides are annotated according to Sollid, L. M., et al., (Immunogenetics, 2012, 64(6): 455-460) (A). […] Error bars illustrate mean±SD of duplicates. […] HSA=human serum albumin; BSA=bovine serum albumin.
# Assays were performed at RT with duplicate wells. Between each layer, the plates were washed 3× with PBST.
binding result [5],binding result [6],binding result (33mer α-gliadin peptide),binding result (BSA [10]),Binder,also measured
,,,,B1,binding result (R3A2-9F hIgG1 [1]): no binding (tested: 1 µM); binding result (R2A1-8E hIgG1 [2]): no binding (tested: 1 µM); binding result (R4A1-3A (107) hIgG1 [3]): no binding (tested: 1 µM)
,,,,B2,binding result (R3A2-9F hIgG1 [1]): no binding (tested: 1 µM); binding result (R2A1-8E hIgG1 [2]): no binding (tested: 1 µM); binding result (R4A1-3A (107) hIgG1 [3]): no binding (tested: 1 µM)
no binding (tested: 1 µM),no binding (tested: 1 µM),no binding (tested: 1 µM),,B3,binding result (BSA [4]): no binding (tested: 0.5 µg/ml)
no binding (tested: 1 µM),no binding (tested: 1 µM),no binding (tested: 1 µM),,B4,
,,,,B5,binding result (R3A2-9F hIgG1 [7]): no binding (tested: 1 µM); binding result (R2A1-8E hIgG1 [8]): no binding (tested: 1 µM); binding result (R4A1-3A (107) hIgG1 [9]): no binding (tested: 1 µM)
no binding (tested: 1 µM),no binding (tested: 1 µM),no binding (tested: 1 µM),,B6,
,,,no binding (tested: 0.5 µg/ml),B7,
,,,no binding (tested: 0.5 µg/ml),B8,
,,,no binding (tested: 0.5 µg/ml),B9,
